In article PMC5536344:

What was measured:
[1] = molecular target: HIV-1 Pr55^Gag with a TEV-cleavable C-terminal hexahistidine tag, uncleaved (HIV-1); test: SEC
[2] = molecular target: HIV-1 Pr55^Gag with a non-cleavable C-terminal hexahistidine tag (HIV-1); test: SEC
[3] = molecular target: HIV-1 Pr55^Gag (untagged full length wild type Gag polyprotein) (HIV-1); test: SEC-MALS
[4] = molecular target: HIV-1 Pr55^Gag (untagged full length wild type Gag polyprotein) (HIV-1); test: SEC
[5] = molecular target: HIV-1 Pr55^Gag-ENLYFQ (Pr55^Gag-TEV-His after removal of the tag with TEV protease) (HIV-1); test: SEC

“HIV-1 Pr55^Gag with a TEV-cleavable C-terminal hexahistidine tag, uncleaved (natural protein)” gave a stoichiometry N [1] of 2.
For “HIV-1 Pr55^Gag with a non-cleavable C-terminal hexahistidine tag (natural protein)”, the stoichiometry N [2] was 2.
“HIV-1 Pr55^Gag (untagged full length wild type Gag polyprotein) (natural protein)” was tested, and the stoichiometry N [3] was 2 and the stoichiometry N [4] was 2.
For “HIV-1 Pr55^Gag-ENLYFQ (Pr55^Gag-TEV-His after removal of the tag with TEV protease) (natural protein)”, the stoichiometry N [5] was 2.
